Measured values reported in US20160017016A1 (AstraZeneca / MedImmune, published 2016).
*1 amine or outer side, *2 acyl side, *3 side chain or, on linkers, in order; H or OH if unused. Primed or numbered codes have the meaning given here. Where no end group is shown, it is not given here. Side-chain parts run from the residue outwards. [ ]: non-standard residue; d: D form. The star is where a group is joined. PEG4′ = 4 PEG units (K(PEGxpalm): Lys with x PEG units and palmitoyl at epsilon N, C-terminal (PEG)4); γGlu = O=C(O)[C@H](CCC(=O)[*:2])N[*:1]; Palmitoyl = CCCCCCCCCCCCCCCC(=O)*; PEG12′ = not defined here

B1: g358 (peptide)
peptide: HSQGTFTSDYSKYLDSRRAQDFVQWLV
modifications: C-terminal 11-aminoundecanoic acid (Aud)
B2: g439 (peptide)
peptide: HSQGTFTSDYSKYLDSXRAQDFVQWLV
modifications: not fully specified; K(PEG4-palm) at 17; C-terminal PEG8
B3: g435 (peptide)
peptide: HSQGTFTSDYSKYLDSXRAQDFVQWLV
modifications: not fully specified; K(PEG2-palm) at 17; C-terminal PEG4
B4: g972 (peptide)
peptide: HSQGTFTSDYSKYLDK([PEG4′-Palmitoyl])SRARDFVAWLV[PEG4′]
B5: g425 (peptide)
peptide: HSQGTFTSDYSKYLDKRRAQDFVQWLV[PEG4′]
modifications: not fully specified (residue 16); printed as HSQGTFTSDYSKYLDB1RRAQDFVQWLVZ4
B6: g440 (peptide)
peptide: HSQGTFTSDYSKYLDSXRAQDFVQWLV
modifications: not fully specified; K(PEG4-palm) at 17; C-terminal PEG12
B7: g423 (peptide)
peptide: HSQGTFTSDYSKYLDSRKAQDFVQWLV[PEG4′]
modifications: not fully specified (residue 18); printed as HSQGTFTSDYSKYLDSRB1AQDFVQWLVZ4
B8: g438 (peptide)
peptide: HSQGTFTSDYSKYLDSXRAQDFVQWLV
modifications: not fully specified; K(PEG4-palm) at 17; C-terminal PEG6
B9: g433 (peptide)
peptide: HSEGTFTSDYSKYLDSKRAQDFVQWLV[PEG4′]
modifications: not fully specified (residue 17); printed as HSEGTFTSDYSKYLDSB1RAQDFVQWLVZ4
B10: g515 (peptide)
peptide: HSEGTFTSDYSKYK([γGlu-Palmitoyl])DSRRAQDFVQWLV[PEG4′]
B11: g357 (peptide)
peptide: HSQGTFTSDYSKYLDSRRAQDFVQWLV
modifications: C-terminal 6-aminohexanoic acid (Ahx)
B12: g695 (peptide)
peptide: HGQGTFTSDYSEYLDSK([γGlu-Palmitoyl])RAQDFVQWLV[PEG4′]
B13: g735 (peptide)
peptide: HGQGTFTSDYSKYLDSEK([γGlu-Palmitoyl])ARDFVAWLV[PEG4′]
B14: g533 (peptide)
peptide: HSQGTFTSDYSKYLDSKRAQDFVQWLEA
modifications: K(gE-palm) at 17 (printed as B); C-terminal PEG2
B15: g516 (peptide)
peptide: HGQGTFTSDYSKYLDSXRAQDFVQWLE
modifications: K(gE-palm) at 17; C-terminal PEG4
B16: g828 (peptide)
peptide: HSQGTFTSDYSKYLDSK([γGlu-Palmitoyl])RAQRDFVAWLV[PEG12′]
modifications: not fully specified; printed as HSQGTFTSDYSKYLDSBRAQRDFVAWLVZ12
B17: g514 (peptide)
peptide: HGQGTFTSDYSKYK([γGlu-Palmitoyl])DSRRAQDFVQWLV[PEG4′]
B18: g437 (peptide)
peptide: HSQGTFTSDYSKYLDSXRAQDFVQWLV
modifications: not fully specified; K(PEG4-palm) at 17; C-terminal PEG2
B19: g415 (peptide)
peptide: HSQGTFTSDYSKYLDSRKRAQDFVQWLV[PEG4′]
modifications: not fully specified (residue 18); printed as HSQGTFTSDYSKYLDSRB1RAQDFVQWLVZ4
B20: g457 (peptide)
peptide: HSQGTFTSDYSKYLDSRRAXDFVQWLV
modifications: K(PEG4-palm) at 20; C-terminal PEG4
B21: g454 (peptide)
peptide: HSQGTFTSDYSKYLDSRK([γGlu-Palmitoyl])AQDFVQWLE[PEG4′]
B22: g434 (peptide)
peptide: HSQGTFTSDYSKYLDSXRAQDFVQWLV
modifications: K(PEG3-palm) at 17; C-terminal PEG4
B23: g427 (peptide)
peptide: HSQGTFTSDYSKYKDSRRAQDFVQWLV[PEG4′]
modifications: not fully specified (residue 14); printed as HSQGTFTSDYSKYB1DSRRAQDFVQWLVZ4
B24: g503 (peptide)
peptide: HSQGTFTSDYSKYLDSXRAQDFVQWLE
modifications: K(PEG3-palm) at 17; C-terminal PEG4
B25: g424 (peptide)
peptide: HSQGTFTSDYSKYLDK([γGlu-Palmitoyl])RRAQDFVQWLV[PEG4′]
B26: g429 (peptide)
peptide: HSQGTFTSDYSKYLDSXRAQDFVQWLE
modifications: not fully specified; K(PEG4-palm) at 17; C-terminal PEG4
B27: g417 (peptide)
peptide: HSQGTFTSDYSXYLDSRRAQDFVQWLV
modifications: not fully specified; K(PEG4-palm) at 12; C-terminal PEG4
B28: g431 (peptide)
peptide: HGQGTFTSDYSKYLDSXRAQDFVQWLV
modifications: not fully specified; K(PEG4-palm) at 17; C-terminal PEG4
B29: g694 (peptide)
peptide: HGQGTFTSDYSKYLDSK([γGlu-Palmitoyl])RAQDFVEWLV[PEG4′]
B30: g501 (peptide)
peptide: HXQGTFTSDYSKYLDSXRAQDFVQWLV
modifications: alpha-amino-iso-butyric acid (Aib) at 2; K(PEG4-palm) at 17; C-terminal PEG4
B31: g502 (peptide)
peptide: HSQGTFTSDYSKYLDSXRAQDFVQWLE
modifications: K(PEG2-palm) at 17; C-terminal PEG4
B32: g810 (peptide)
peptide: HSQGTFTSDYSKYLDEK([γGlu-Palmitoyl])RAQDFVQWLV[PEG4′]
B33: g422 (peptide)
peptide: HSQGTFTSDYSKYLDSRK([γGlu-Palmitoyl])AQDFVQWLV[PEG4′]
B34: g499 (peptide)
peptide: HGQGTFTSDYSKYLESK([PEG4′-Palmitoyl])RAQDFVQWLV[PEG4′]
B35: g498 (peptide)
peptide: HGQGTFTSDYSKYLESK([γGlu-Palmitoyl])RAQDFVQWLV[PEG4′]
B36: g436 (peptide)
peptide: HSQGTFTSDYSKYLDSXRAQDFVQWLV
modifications: not fully specified; K(PEG4-palm) at 17; C-terminal PEG3
B37: g693 (peptide)
peptide: HGQGTFTSDYSKYLDSK([γGlu-Palmitoyl])RAEDFVQWLV[PEG4′]
B38: g827 (peptide)
peptide: HSQGTFTSDYSRYLDSK([γGlu-Palmitoyl])RARDFVAWLV[PEG4′]
B39: g495 (peptide)
peptide: HSQGTFTSDYSKYLDK([PEG4′-Palmitoyl])RRAQDFVQWLE[PEG4′]

What follows are binders tested against human GLP-1 receptor (GLP-1R) (human, UniProt P43220 24-463) (assay: cell-based or functional assay).

Row | Binder | cAMP activity, GLP1 EC50 nM
1 | B1 | 3.2 nM
2 | B2 | 0.008 nM
3 | B3 | 0.01 nM
4 | B4 | 0.03 nM
5 | B5 | 0.008 nM
6 | B6 | 0.008 nM
7 | B7 | 0.01 nM
8 | B8 | 0.005 nM
9 | B9 | 0.004 nM
10 | B10 | 0.1 nM
11 | B11 | 1.6 nM
12 | B12 | 0.2 nM
13 | B13 | 0.8 nM
14 | B14 | 0.09 nM
15 | B15 | 0.6 nM
16 | B16 | 0.04 nM
17 | B17 | 0.1 nM
18 | B18 | 0.006 nM
19 | B19 | 0.007 nM
20 | B20 | 0.03 nM

Row | Binder | cAMP activity, GLP1 EC50 nM
21 | B21 | 0.5 nM
22 | B22 | 0.005 nM
23 | B23 | 0.004 nM
24 | B24 | 0.02 nM
25 | B25 | 0.4 nM
26 | B26 | 0.004 nM
27 | B27 | 0.02 nM
28 | B28 | 0.006 nM
29 | B29 | 0.07 nM
30 | B30 | 0.03 nM
31 | B31 | 0.03 nM
32 | B32 | 0.5 nM
33 | B33 | 0.2 nM
34 | B34 | 0.02 nM
35 | B35 | 0.6 nM
36 | B36 | 0.01 nM
37 | B37 | 0.1 nM
38 | B38 | 0.2 nM
39 | B39 | 0.09 nM

Each binder was assayed against human glucagon receptor (GCGR) (human, UniProt P47871 26-477) (assay: cell-based or functional assay).
human glucagon receptor (GCGR), sequence (P47871 26-477): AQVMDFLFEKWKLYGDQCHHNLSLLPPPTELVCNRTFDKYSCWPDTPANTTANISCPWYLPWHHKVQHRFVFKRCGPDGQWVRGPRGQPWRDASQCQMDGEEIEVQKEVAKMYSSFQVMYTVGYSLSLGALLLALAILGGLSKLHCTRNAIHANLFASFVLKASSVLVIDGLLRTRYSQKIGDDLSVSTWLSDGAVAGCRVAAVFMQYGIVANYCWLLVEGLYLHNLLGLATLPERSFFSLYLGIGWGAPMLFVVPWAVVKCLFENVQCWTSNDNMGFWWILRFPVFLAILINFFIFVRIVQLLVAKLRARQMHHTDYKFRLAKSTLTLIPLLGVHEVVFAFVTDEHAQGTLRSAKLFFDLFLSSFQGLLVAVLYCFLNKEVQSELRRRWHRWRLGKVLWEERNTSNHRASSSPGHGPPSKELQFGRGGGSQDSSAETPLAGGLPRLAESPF

Row | Binder | cAMP activity, Glcg EC50 nM
40 | B1 | 0.03 nM
41 | B2 | 0.002 nM
42 | B3 | 0.002 nM
43 | B4 | 0.03 nM
44 | B5 | 0.002 nM
45 | B6 | 0.002 nM
46 | B7 | 0.004 nM
47 | B8 | 0.002 nM
48 | B9 | 0.03 nM
49 | B10 | 0.4 nM
50 | B11 | 0.08 nM
51 | B12 | 4 nM
52 | B13 | > 1800 nM
53 | B14 | 0.003 nM
54 | B15 | 0.08 nM
55 | B16 | 0.02 nM
56 | B17 | 0.02 nM
57 | B18 | 0.002 nM
58 | B19 | 0.002 nM
59 | B20 | 0.004 nM

Row | Binder | cAMP activity, Glcg EC50 nM
60 | B21 | 0.08 nM
61 | B22 | 0.02 nM
62 | B23 | 0.002 nM
63 | B24 | 0.002 nM
64 | B25 | 0.009 nM
65 | B26 | 0.005 nM
66 | B27 | 0.003 nM
67 | B28 | 0.004 nM
68 | B29 | 0.2 nM
69 | B30 | 0.003 nM
70 | B31 | 0.001 nM
71 | B32 | 0.03 nM
72 | B33 | 0.7 nM
73 | B34 | 0.03 nM
74 | B35 | 2 nM
75 | B36 | 0.002 nM
76 | B37 | > 2 nM
77 | B38 | 0.04 nM
78 | B39 | 0.002 nM
